Assays:
[1] = molecular target: full length human FGFR3b S249C on BaF3 cells (BAF3/FGFR3b_S249C, ACL11986) (human, UniProt P22607 23-808); experiment: cell-based or functional assay
[2] = molecular target: full length human FGFR3b S249C/V557M on BaF3 cells (human, UniProt P22607 23-808); experiment: cell-based or functional assay
[3] = molecular target: full length human FGFR3b S249C/V557L on BaF3 cells (human, UniProt P22607 23-808); experiment: cell-based or functional assay
[4] = molecular target: T1, cynomolgus FGFR3b expressed with a C-terminal myc-myc-hexahistidine tag (mfFGFR3b.mmH) (cynomolgus); experiment: SPR Biacore, mAb captured on anti-hFc, 25C
T1 construct: also called REGN3521; mf FGFR3b ecto (R357G)(E23-G377;R357G).mmH
T1 chain: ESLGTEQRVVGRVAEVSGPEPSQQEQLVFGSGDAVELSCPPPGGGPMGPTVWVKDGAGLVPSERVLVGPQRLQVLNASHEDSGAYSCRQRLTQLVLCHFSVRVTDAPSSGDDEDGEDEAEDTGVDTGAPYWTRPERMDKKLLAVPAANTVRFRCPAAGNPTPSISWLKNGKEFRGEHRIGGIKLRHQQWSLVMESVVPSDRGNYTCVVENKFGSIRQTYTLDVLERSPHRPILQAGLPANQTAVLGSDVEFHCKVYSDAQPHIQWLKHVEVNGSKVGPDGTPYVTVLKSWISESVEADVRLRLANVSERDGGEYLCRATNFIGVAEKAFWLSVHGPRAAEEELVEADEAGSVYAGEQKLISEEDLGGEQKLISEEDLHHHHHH

[5] = molecular target: T2, human FGFR3b expressed with a C-terminal murine Fc tag (hFGFR3b.mFc) (human); experiment: SPR Biacore, mAb captured on anti-hFc, 25C
T2 construct: called dimeric; also called REGN3153; dimeric human FGFR3b
T2 chain: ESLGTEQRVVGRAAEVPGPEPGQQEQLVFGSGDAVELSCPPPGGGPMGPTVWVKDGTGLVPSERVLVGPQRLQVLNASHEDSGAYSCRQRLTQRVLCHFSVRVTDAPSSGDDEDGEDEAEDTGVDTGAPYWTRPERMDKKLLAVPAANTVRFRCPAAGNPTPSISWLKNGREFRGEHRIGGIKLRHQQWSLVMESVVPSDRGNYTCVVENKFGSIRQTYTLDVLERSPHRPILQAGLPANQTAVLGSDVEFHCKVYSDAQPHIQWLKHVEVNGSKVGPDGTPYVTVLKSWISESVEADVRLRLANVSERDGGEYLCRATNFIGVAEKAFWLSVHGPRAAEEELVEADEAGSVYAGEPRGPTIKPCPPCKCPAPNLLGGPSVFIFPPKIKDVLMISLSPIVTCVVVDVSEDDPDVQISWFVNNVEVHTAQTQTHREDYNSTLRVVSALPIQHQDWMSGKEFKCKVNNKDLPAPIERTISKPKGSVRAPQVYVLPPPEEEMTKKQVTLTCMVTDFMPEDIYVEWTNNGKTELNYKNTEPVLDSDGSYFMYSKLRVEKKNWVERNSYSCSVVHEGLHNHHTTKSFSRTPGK

[6] = molecular target: T3, human FGFR3c expressed with a C-terminal myc-myc-hexahistidine tag (hFGFR3c.mmH) (human, UniProt P22607 23-375); experiment: SPR Biacore, mAb captured on anti-hFc, 25C; row marked NB
T3 construct: also called REGN3155; monomeric human FGFR3c

B1: H4H30063P (antibody, human IgG4 S228P, kappa, V domains shown)
VH: QVQLQESGPGLVKPSETLSLTCTVSGDSINSYFWSWIRQLPGKELEWIGHIYSSGSTRYNPSLQSRVTISIDTSKNQFSLKLSSVTAADTAVYYCARGASAVDYWGQGTLVTVSS
VL: EIVLTQSPGTLSLSPGERATLSCRTSQSISSGYLAWYQQKPGQAPRLLIYGASRRATGIPDRFSGSGSGTDFTLTISRLEPEDFVVYYCQQYGSSPYTFGQGTKLEIKR
notes: HCVR 2, LCVR 10; also called REGN15684
[1]
  IC50, growth of BaF3 cells expressing FGFR3 S249C (CellTiter-Glo): 1.36 nM
[2]
  IC50, growth of BaF3 cells expressing FGFR3 S249C/V557M (CellTiter-Glo): 3.9 nM
[3]
  IC50, growth of BaF3 cells expressing FGFR3 S249C/V557L (CellTiter-Glo): 4.3 nM
[4]
  90 nM mfFGFR3b.mmH Bind (RU): 212 RU
  Kd: 0.275 nM
  koff: 4.21e-05 s⁻¹
  kon: 153000 M⁻¹ s⁻¹
  t½: 4.58 h
[5]
  30 nM hFGFR3b.mFc Bind (RU): 296 RU
  Kd: ≤ 0.0226 nM
  koff: ≤ 1e-05 s⁻¹
  kon: 442000 M⁻¹ s⁻¹
  t½: ≥ 19.2 h
[6]
  90 nM hFGFR3c.mmH Bind (RU): -19.6 RU
